Test results taken from US20140289906A1, “Compositions Having Dicamba Decarboxylase Activity and Methods of Use” (priority 2013, published 2014).

Assay: 14C assay: 14CO2 capture from [14C]-carboxyl-labeled dicamba with IPTG-induced recombinant E. coli cells
Conditions: for Dicamba Decarboxylase Activity: IPTG-induced recombinant E. coli cells, 14CO2 from [14C]-carboxyl-labeled dicamba; for decarboxylation activity of dicamba: among the 108 sequences tested, recombinant E. coli cell assay; for Enzymatic Detection level: dicamba decarboxylation activity

Row | Molecule | Dicamba Decarboxylase Activity | decarboxylation activity of dicamba | Enzymatic Detection level
1 | 51 (protein, listed as Mycobacterium gilvum) MARVIAIEEHYAHPGLQPAEALANLRKHPQLARIQDKLEDLGAGRLADMDAAGIDMQVLSHTVPGAEALPAAQAVDVVRQTNDDLAEVIAAHPDRFAGFAALPMRDPQAAATELQRAVGTLGFCGAMINGLIEGRFLDHPDFTPLLSTAADLGVPLYLHPSFPPPQVAQIYFGGLPPVLADLLATAGWGWHAETALHVLRLISTGVFDRLPELRVIVGHMGEMIPFALARIDTVLSPMTELRQPVAQYFQTNVWFTTSGYTTFPPLQCALSTVGIDRLIFSVDYPYTDNASARALLDTAPISPVDREKLAHATVEALLRV | High | showed decarboxylation activity of dicamba | High
2 | 47 (protein, listed as Serratia odorifera) MAKIICLEEHTLDKALVMASMPAALAQAPFLSDWGKTITDGNLPDRSRPQIEKNDLINVKGADIGRGRLDDMDEAGITMQVLSVGGFPHLISAAEGVDLNRAANDRLANAVNAHPDRFAAFATLPWAQPDAAEKELERAVKELGFKGALLNGRPSIHFLDHPDYDGLLARFNALGVPLYLHPGLPVRSVQQAYYSGFSDEVTARLSMFGWGWHHEAGIHLLRLILSGAFDKYPNLQVISGHWGEMLPFWLQRLDDSLPQAATGLRRTITQTFREQVYVTPSGMLTLPHFQFIYALLGAERILFSVDYPYQTLDGVKAFIQSLPVPEEAKEAIAFRNAERLFGLTS | High | showed decarboxylation activity of dicamba | High
3 | 46 (protein, listed as Rhodococcus opacus) MARIITLEEHYLDPAIAAASAPLARELSPDFAAAYDPASGLSYTPSAQVLQDLGQRRIADMDTHGISMQVLSCLTTQQVPADVAPDLVRAANDTAAAAVRAHPDRFAAFAALPTTAPDAAATELARCIDDLGFVGTMINGRTDGEFLDAPRFDPILATAAARNVPIYLHPAVPPRATSDSNYAGLAPLVTARLQTSAWGWHQETAVHFLHLVLSGVLDRYPNLQFILGHWGEMIPFYLDRLDEALPQAVTNLDRTISDYVRENVYITPSGMFNQAQLQYCVETLGVDRILYSVDYPFIGNDGAVSFLDEANLPDEAKHQIAHQNTEKLLGL | High | showed decarboxylation activity of dicamba | High
4 | 48 (protein, listed as Amycolatopsis mediterranei) MASMKLYGLEEHFVTADVIEAWRRRDPGLAEPMMKWAVASDITPALLDVDGGRIAAMDDAGIDTTVLSLTTPGLQNLDAAEAVALQAPTNDLIAAAVRRHPGRFQGFATLATSAPAAAADELRRAVTELGLNGALVNANSRGRALDAPGFWDIYEAAEDLRAPVYLHPGVPVPAVTEAYYRGFGEPVNSMLATGAFGWHYDAGLTILRMIVAGVFDRFPGLQVILGHWGEVVLFYLDRVAAMDKLTALRRPIAEYFRSNIFITPGGISSHKYLRWSLETVGVERIMYASDYPFNTERAGSARRFLDTAPVDEAGRERIAYRNWEELIAGIRR | High | showed decarboxylation activity of dicamba | High
5 | 49 (protein, listed as Streptomyces sp.) MAKIIALEEHFSDPAVAKAGAARARALSPGFAASYSPASGLPYSPSPEVLENLAEKRLADMDAGGITMQVLSGLGAQTVPADVAPALVAGSNDKAAAAVRAHPDRFAAFAALPTATPEAAVAELDRSVNELGFVGTLIMGRTEGEFLDAPRFEPILARAAALKVPVFLHPGVPPREITDSNYAAGLPTGIGTRLQTAAWGWHQETAVHFLHLVHSGVLDRYPDLQFILGHWGEMIPFYLDRVDEALPQRATGLDRSFHEYFRENVYLAPSGMWSQAQLRFCLETVPLERIVFAVDYPFIGNEGAVPFLEKAELPQADKRKIAHENAERLLGL | High | showed decarboxylation activity of dicamba | High
6 | 54 (protein, listed as Streptomyces sp.) MAKIIALEEHFSDPAVAKAGAARAQALSPGFAASYSPASGLPYSPSPEVLENLAEKRLADMDAGGITMQVLSGLGAQTVPADVAPALVAGSNDKAAAAVRAHPDRFAAFAALPTAAPEAAVAELDRSINELGFVGTLIMGRTEGEFLDAPRFEPILARAAALKVPVFLHPGVPPREITDSNYAAGLPTGIGTRLQTAAWGWHQETAVHFLHLVHSGVLDRYPGLQFILGHWGEMIPFYLDRVDEALPQRATGLDRSFHEYFRENVYLAPSGMWSQAQLRFCLETVPLERIVFAVDYPFIGNEGAVPFLEKAELPEADKRKIAHENAERLLGL | High | showed decarboxylation activity of dicamba | High
7 | 52 (protein, listed as Streptomyces sp.) MAKIIALEEHFSDPAVAKAGAARAQALSPGFAASYSPASGLPYSPSPEVLENLAEKRLADMDAGGITMQVLSGLSAQTVPADVAPALVAGSNDKAAAAVRAHPDRFAAFAALPTAAPEAAVAELDRSVNELGFVGTLIMGRTEGEFLDAPRFEPILARAAALKVPVFLHPGVPPREITDSNYAAGLPTGIGTRLQTAAWGWHQETAVHFLHLVHSGVLDRYPDLQFILGHWGETIPFYLDRVDEALPQRATGLDRSFHEYFRENVYLAPSGMWSQAQLRFCLETFPLERIVFAVDYPFIGNEGAVPFLEKAELPEADKRKIAHENAERLLGL | High | showed decarboxylation activity of dicamba | High
8 | 53 (protein, listed as Granulicella tundricola) MARTITLEEHFVTDSFLRATGAYDKPAPPWLAQLQPKLLDLGDGRIAAMDEAGIDLQVLSLAALGFDALDAATATPLVHDINDELAAAVRANPTRLAAFASLALKDPQSAARELERAIQKLGFRGVLLDGTTDGLFLDDPRFTPVFEAAVALNVPIYLHPAPPPESVFDTYFTGLPEGVGQMLSIAGWGWHAETALHTLRLITNGVFDRYPTLQLIIGHMGEMLPMALARTSKALSHAARLRQPVAAYFQSNIHLTTSGYFTQPPLRCALDVVGIDRLMFSIDYPFSANTLGRDYLTELEQTLTPEDLAKLIHRNAESLLNLS | High | showed decarboxylation activity of dicamba | High
9 | 50 (protein, listed as Streptomyces sp.) MARIVTLEEHWTDPAVTAAGMPNLLDHVPGYAAAFDPDTGMPYPRHPELLEDLGAARIADMDRHGITTQVLSLVNTFLPADVAPRLTAAANDAMAAAVEAFPGRFAAFATLPTAVPGAAADELRRCVGELGFVGTMIMGRTDGEFLDQPRFDPILRAASDLSVPVYLHPAPPPVAVSEASYAGGLSPAVSAAFRLAAWGWHQETAVHLLHLVLAGVLDRYPGLQFVLGHWGEFIPFYLDRLDESMPRRMTGLDRTFREYFRDNVFITPSGMFSQAQLRYCADTVGTDRIIHSVDFPMLGNEGAVSFLTDSHLSREDQEKIAHGNADALLGLG | High | showed decarboxylation activity of dicamba | High
